# Results taken from patent publication WO2015031626A1 (dated 2015).
# B1: anti-cMet 11E1 monoclonal antibody (hybridoma CNCM I-3724) (antibody, V domains shown)
# VH: QVQLQQSGAELAKPGASVKMSCKASGYTFTSYWMNWVKQRPGQGLEWIGYINPTTGSTDYNQKLKDKATLTADKSSNTAYMQLSSLTSEDSAVYYCAIGGYGSWFAYWGQGTLVTVSA
# VL: QIVLTQSPAIMSASPGEKVTLTCSASSSVSSTYLYWYQQKPGSSPKLWIYTTSILASGVPARFSGSGSGTSYSLTISSMETEDAASYFCHQWSSYPFTFGSGTKLDIK
# notes: summary and claims call them variable heavy and variable light domains; Hybridoma monoclonal, coated on magnetic microparticles (capture) or labelled with acridinium (conjugate); also called m11E1; mAb 11E1
# B2: anti-cMet 224D10 F(ab')2 fragment antibody (antibody, V domains shown)
# VH: DLQLQESGPGLVKPSQSLSLTCSVTGYSITSAYFWSWIRQFPGNKLEWMGFINYDGTNNYNPSLKNRISITRDTSKNQFFLRLNSVTTDDTATYYCTRDRTFAYWGQGTLVTVSA
# VL: DIVLTQSPATLSVTPGDRVSLSCRASQRIYNYLHWYQQKSHESPRLLIKYASQSISGIPSRFSGSGSGTDFILTINSVETEDFGMYFCQQSNSWPLTFGAGTKLELRR
# modifications: acridinium conjugate (site not stated)
# notes: also called 224D10 F(ab') 2 fragment conjugate
# What was measured:
# [1] = target: T1, free cMet (SEQ ID NO: 33) bound to Alexa-488 dye (human, UniProt P08581 25-932, Alexa-488 dye (site not stated)); assay: FRET binding titration in solution
# T1 construct: also called cMet-A488
# [2] = target: T2, recombinant human scMet antigen, cMet (25-932)-HIEGRMD-6His (human, UniProt P08581 25-932); assay: … chemiluminescent microparticle sandwich immunoassay on recombinant scMet
# T2 construct: this entry is used for those rows too; also called soluble cMet; scMet B Sample
# [3] = target: T2, recombinant human scMet antigen, cMet …; assay: … scMet B sandwich immunoassay, 224D10 F(ab')2 as acridinium conjugate
# T2 sequence (P08581 other isoform, or with tags, fused parts or gaps limits assumed): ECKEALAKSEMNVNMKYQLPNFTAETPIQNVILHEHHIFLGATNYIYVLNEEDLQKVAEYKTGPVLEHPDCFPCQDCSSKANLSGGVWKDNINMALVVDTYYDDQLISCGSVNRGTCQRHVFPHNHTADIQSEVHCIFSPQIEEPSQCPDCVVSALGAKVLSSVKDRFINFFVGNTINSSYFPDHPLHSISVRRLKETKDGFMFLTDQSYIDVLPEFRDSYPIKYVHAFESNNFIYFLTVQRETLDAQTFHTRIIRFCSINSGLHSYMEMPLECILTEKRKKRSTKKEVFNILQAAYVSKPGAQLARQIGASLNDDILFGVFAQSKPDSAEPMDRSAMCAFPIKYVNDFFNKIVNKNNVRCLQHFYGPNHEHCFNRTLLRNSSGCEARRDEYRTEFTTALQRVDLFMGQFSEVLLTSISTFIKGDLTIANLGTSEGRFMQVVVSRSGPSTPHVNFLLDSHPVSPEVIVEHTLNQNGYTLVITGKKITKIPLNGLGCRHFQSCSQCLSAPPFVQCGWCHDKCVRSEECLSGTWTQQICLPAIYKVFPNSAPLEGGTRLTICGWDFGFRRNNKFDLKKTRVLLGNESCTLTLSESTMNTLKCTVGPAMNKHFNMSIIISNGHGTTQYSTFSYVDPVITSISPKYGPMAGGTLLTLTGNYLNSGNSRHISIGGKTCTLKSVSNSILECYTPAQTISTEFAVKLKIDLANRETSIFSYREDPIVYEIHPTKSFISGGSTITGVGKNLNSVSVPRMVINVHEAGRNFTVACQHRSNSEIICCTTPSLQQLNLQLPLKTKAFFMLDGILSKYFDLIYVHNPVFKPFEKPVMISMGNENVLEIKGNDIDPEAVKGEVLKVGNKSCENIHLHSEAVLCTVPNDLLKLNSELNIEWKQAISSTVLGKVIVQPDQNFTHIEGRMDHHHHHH
# T1 sequence (P08581 other isoform, or with tags, fused parts or gaps limits assumed): as above
Binder,binding result [1],binding result [2],binding result [3]
B1,binds,binds,
B2,,,binds
